Reference: US20040161448

Key:
[1] = molecular target: soybean agglutinin (SBA), P05046
[2] = molecular target: T1, Soybean Kunitz Trypsin Inhibitor, P01070
T1 chain: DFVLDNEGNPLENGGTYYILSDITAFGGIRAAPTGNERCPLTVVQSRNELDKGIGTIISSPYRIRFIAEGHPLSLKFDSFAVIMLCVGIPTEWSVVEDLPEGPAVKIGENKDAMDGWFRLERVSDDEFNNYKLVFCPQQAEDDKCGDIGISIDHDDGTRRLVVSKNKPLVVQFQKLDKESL

[3] = molecular target: T2, soybean Bowman-Birk Inhibitor, P01055
T2 chain: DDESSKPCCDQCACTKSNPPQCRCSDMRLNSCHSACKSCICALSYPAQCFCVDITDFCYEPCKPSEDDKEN

Sequence of soybean agglutinin (SBA), P05046 (P05046 33-285): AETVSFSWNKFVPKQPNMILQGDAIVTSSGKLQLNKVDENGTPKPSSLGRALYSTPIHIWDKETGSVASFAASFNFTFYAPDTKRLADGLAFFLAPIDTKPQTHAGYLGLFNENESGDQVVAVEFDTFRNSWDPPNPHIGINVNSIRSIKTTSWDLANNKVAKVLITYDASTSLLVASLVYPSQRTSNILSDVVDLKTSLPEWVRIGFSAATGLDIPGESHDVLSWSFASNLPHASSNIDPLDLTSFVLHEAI

B1: protease derived from Nocardiopsis sp. NRRL 18262 (protein)
chain: ADIIGGLAYTMGGRCSVGFAATNAAGQPGFVTAGHCGRVGTQVTIGNGRGVFEQSVFPGNDAAFVRGTSNFTLTNLVSRYNTGGYATVAGHNQAPIGSSVCRSGSTTGWHCGTIQARGQSVSYPEGTVTNMTRTTVCAEPGDSGGSYISGTQAQGVTSGGSGNCRTGGTTFYQEVTPMVNSWGVRLRT
B1 showed a % of anti-nutritional factor degraded [1] of 75%, a % of anti-nutritional factor degraded [2] of 100% and a % of anti-nutritional factor degraded [3] of 25%.
